Our source for the binding signal (fold vs vehicle (supershifted complex)) and binding signal (fold vs vehicle) values is PMC3961330.

Some results are limits rather than exact numbers.

Data set [1] relates to PPARalpha (rat liver nuclear extract);RXRalpha (rat liver nuclear extract) (rat;rat). Description: EMSA with anti-PPARalpha supershift. To be noted: OEA-treated rats; anti-PPARalpha antibody; 10 mM HEPES pH 7.9, 150 mM KCl, 1 mM DTT, 0.2 ug/uL poly(dI-C), 5% glycerol; 15 min on ice then 15 min with probe at room temperature; 8% native PAGE, 0.5x TBE.
Data set [2] has the same test system. Description: EMSA. To be noted: OEA-treated rats; 10 mM HEPES pH 7.9, 150 mM KCl, 1 mM DTT, 0.2 ug/uL poly(dI-C), 5% glycerol; 15 min on ice then 15 min with probe at room temperature; 8% native PAGE, 0.5x TBE. Background: A gel shift assay detects complexes by their altered migration in electrophoresis.

ACOX-PPRE: the binding signal (fold vs vehicle (supershifted complex)) in data set [1] was greater than 3. Further, the binding signal (fold vs vehicle) in data set [2] was 2.
